Experimental data published in the RNAGym collection of RNA variant scans (doi:10.1101/gr.219683.116).

B1: mRNA-splicing (parent)
chain: AGUUGCUGCUGGGAGCUCCAGCACAGUGAAAUGGACAGAAGGGCAGAGCAA

Variants of: B1
Experiment: exon inclusion enrichment index; higher = more inclusion; WT1 exon 5 minigene, HEK293

Variant | exon inclusion enrichment index
AGUUCGCGCCGGGAGCUCCAGCACAGUGAAAUGGACAGGGGGGCAGAGCAA [G5C C6G U7C U10C A39G A40G] | 0.367
AGUUACCACCGGGAGCUCCCCCACAGUGAAAUGGACAGAAGGGCAGAGCAA [G5A U7C G8A U10C A20C G21C] | 0.722
AGUUACCACCGGGAGCUCCAGCACAGUGAAAUGGACACUAGGGCAGAGCAA [G5A U7C G8A U10C G38C A39U] | 0.229
AGUUCACACAGGGCACUCCAGCACAGUGAAAUGGACAGAAGGGCAGAGCAA [G5C C6A U7C G8A U10A A14C G15A] | 0.0306
AGUUGAAGAAGGGAGCUCCAGCACAGUGAAAUGGACCUAAGGGCAGAGCAA [C6A U7A C9A U10A A37C G38U] | 0.426
AGUUAUAUAUGGGGCCUCCAGCACAGUGAAAUGGACAGAAGGGCAGAGCAA [G5A C6U U7A G8U C9A A14G G15C] | 0.0123
AGUUGACGACGGGAGCUCCAGCACAGUGAAAUGGACAGAAGCCCAGAGCAA [C6A U7C C9A U10C G42C G43C] | 3.4
AGUUCGCGCCGGGAGCUCCAGCACAGUGAAAUGGACAGAAGGGGUGAGCAA [G5C C6G U7C U10C C44G A45U] | 3.36
AGUUUCUUUUGGGAGACCCAGCACAGUGAAAUGGACAGAAGGGCAGAGCAA [G5U G8U C9U C16A U17C] | 0.0818
AGUUAUAUAUACGAGCUCCAGCACAGUGAAAUGGACAGAAGGGCAGAGCAA [G5A C6U U7A G8U C9A G11A G12C] | 0.0285
AGUUGCUGCUGGGAGCUCCAGCACAGUGAAACCGACAGAAGGGCAGAGCAA [U32C G33C] | 0.303
AGUUGACGACGGGCACUCCAGCACAGUGAAAUGGACAGAAGGGCAGAGCAA [C6A U7C C9A U10C A14C G15A] | 2.13
AGUUCGCGCCGGGAGCUCCUACACAGUGAAAUGGACAGAAGGGCAGAGCAA [G5C C6G U7C U10C A20U G21A] | 2.15
AGUUGCUGACGGGAGCUCCAGCACAGUGAAAUGGACAGAAGGGCAGAGCAA [C9A U10C] | 2.65
AGUUUUCGACGGGAGCUCCAGCACAGUGAAAUGGACAGAAGGGCAGAGCAA [G5U C6U U7C C9A U10C] | 2.91
AGUUGACGACGGGAGCUCCAGCACAAGGAAAUGGACAGAAGGGCAGAGCAA [C6A U7C C9A U10C G26A U27G] | 3.54
AGUUCUUCUCGGGAGCUCCAACACAGUGAAAUGGACAGAAGGGCAGAGCAA [G5C C6U G8C C9U U10C G21A] | 1.28
AGUUCACACAGGGAGCUCCAGCACAGUGAAAUGUCCAGAAGGGCAGAGCAA [G5C C6A U7C G8A U10A G34U A35C] | 0.0109
AGUUAGGGAUGGGAGCUCCUGCACAGUGAAAUGGACAGAAGGGCAGAGCAA [G5A C6G U7G C9A A20U] | 0.00146
AGUUCUUCUCGUAAGCUCCAGCACAGUGAAAUGGACAGAAGGGCAGAGCAA [G5C C6U G8C C9U U10C G12U G13A] | 0.153
AGUUCUUCUCGGGAGCUCCAGCACAGUGAAAUGGACAGAAGGGCCGAGCAA [G5C C6U G8C C9U U10C A45C] | 2.06
AGUUCUUCUCGGGACGUCCAGCACAGUGAAAUGGACAGAAGGGCAGAGCAA [G5C C6U G8C C9U U10C G15C C16G] | 2.09
AGUUCACACACAGAGCUCCAGCACAGUGAAAUGGACAGAAGGGCAGAGCAA [G5C C6A U7C G8A U10A G11C G12A] | 0.0929
AGUUGAAGAAGGGAGCUCCAGCACAGUGAAAUGGACAGAAGGUUAGAGCAA [C6A U7A C9A U10A G43U C44U] | 0.125
AGUUUCUUUUGGGAGCUCCAGCACACAGAAAUGGACAGAAGGGCAGAGCAA [G5U G8U C9U G26C U27A] | 0.135
AGUUAUAUAUGGGAGCUCCAGCAUAGUGAAAUGGACAGAAGGGCAGAGCAA [G5A C6U U7A G8U C9A C24U] | 0.00831

Variant | exon inclusion enrichment index
AGUUCACACAGGGAGCUACAGCACAGUGAAAUGGACAGAAGGGCAGAGCAA [G5C C6A U7C G8A U10A C18A] | 0.0467
AGUUAUCGACGGGAGCUCCAGCACAGUGAAAUGGACAGAAGGGCAGAGCAA [G5A C6U U7C C9A U10C] | 2.91
AGUUUCUUUUGGGAGCUCCAGCACAGUGAAAUAGACAGAAGGGCAGAGCAA [G5U G8U C9U G33A] | 0.00649
AGUUCUUCUCGGGAGCUCCAGCACAGUGAAAUGGACAGAAGGGCAAAGCAA [G5C C6U G8C C9U U10C G46A] | 2.05
AGUUCUUCUCGGGAGCUCCCUCACAGUGAAAUGGACAGAAGGGCAGAGCAA [G5C C6U G8C C9U U10C A20C G21U] | 0.926
AGUUUCUUUUGGGAGCUCCAGCACAGUGAAAUGGCGAGAAGGGCAGAGCAA [G5U G8U C9U A35C C36G] | 0.125
AGUUAGGGAUGGGAGCUACAGCACAGUGAAAUGGACAGAAGGGCAGAGCAA [G5A C6G U7G C9A C18A] | 0.000986
AGUUAUAUAUUCGAGCUCCAGCACAGUGAAAUGGACAGAAGGGCAGAGCAA [G5A C6U U7A G8U C9A G11U G12C] | 0.033
AAUUGAAGAAGGGAGCUCCAGCACAGUGAAAUGGACAGAAGGGCAGAGCAA [G2A C6A U7A C9A U10A] | 0.929
AGUUGCUGCUGGGAGCUCCAGCACAGUGAAAUGGACAGAAGGGCUAAGCAA [A45U G46A] | 0.0722
AGUUGACGAUUGGAGCUCCAGCACAGUGAAAUGGACAGAAGGGCAGAGCAA [C6A U7C C9A G11U] | 2.1
AGUUACCACCGGGAGCGUCAGCACAGUGAAAUGGACAGAAGGGCAGAGCAA [G5A U7C G8A U10C U17G C18U] | 1.66
AGUUGACGACGGGAGCUCCAGCACAGUGAAGUGGACAGAAGGGCAGAGCAA [C6A U7C C9A U10C A31G] | 3.73
AGUUGAAGAAGGGAGCUCCAGCACAGGUAAAUGGACAGAAGGGCAGAGCAA [C6A U7A C9A U10A U27G G28U] | 0.003
AGUUGCUGCUGGGAGCUCCAGCACAGUGAAAUGGACAGAAUGGCAGAGCAA [G41U] | 0.16
AGUUGAAGAAGGGAGCUCCAGCACAGUGAAAUGGACAGUAGGGCAGAGCAA [C6A U7A C9A U10A A39U] | 0.0237
AGUUCACACAGGGAGCUCCAGCGCAGUGAAAUGGACAGAAGGGCAGAGCAA [G5C C6A U7C G8A U10A A23G] | 0.287
AGUUGACGACGGGAGCUCCAGCACAGUGAAAUGGUCAGAAGGGCAGAGCAA [C6A U7C C9A U10C A35U] | 1.36
AGUUCUUCUCGGGAGCGACAGCACAGUGAAAUGGACAGAAGGGCAGAGCAA [G5C C6U G8C C9U U10C U17G C18A] | 2
AGUUUCUUUUGGGAGCUCCAGCACAGUGAAAUGGACAGAAGGGCAUCGCAA [G5U G8U C9U G46U A47C] | 0.55
AGUUAGGGAUGGGAGCUCCAGCACAGUGAAAGAGACAGAAGGGCAGAGCAA [G5A C6G U7G C9A U32G G33A] | 0.00113
AGGUGAAGAAGGGAGCUCCAGCACAGUGAAAUGGACAGAAGGGCAGAGCAA [U3G C6A U7A C9A U10A] | 0.238
AGUUCACACAGUGAGCUCCAGCACAGUGAAAUGGACAGAAGGGCAGAGCAA [G5C C6A U7C G8A U10A G12U] | 0.0134
AGUUACCACCGGGAGCUCCAGCACAGUAUAAUGGACAGAAGGGCAGAGCAA [G5A U7C G8A U10C G28A A29U] | 0.513
AGUUAUAUAUGGGAGCUCCAGCACACGGAAAUGGACAGAAGGGCAGAGCAA [G5A C6U U7A G8U C9A G26C U27G] | 0.442
